Measured values as given in paper PMC8974011.

Target: T1, endogenous STAT1 of HeLa cells (human (endogenous in HeLa)), P42224
T1 chain: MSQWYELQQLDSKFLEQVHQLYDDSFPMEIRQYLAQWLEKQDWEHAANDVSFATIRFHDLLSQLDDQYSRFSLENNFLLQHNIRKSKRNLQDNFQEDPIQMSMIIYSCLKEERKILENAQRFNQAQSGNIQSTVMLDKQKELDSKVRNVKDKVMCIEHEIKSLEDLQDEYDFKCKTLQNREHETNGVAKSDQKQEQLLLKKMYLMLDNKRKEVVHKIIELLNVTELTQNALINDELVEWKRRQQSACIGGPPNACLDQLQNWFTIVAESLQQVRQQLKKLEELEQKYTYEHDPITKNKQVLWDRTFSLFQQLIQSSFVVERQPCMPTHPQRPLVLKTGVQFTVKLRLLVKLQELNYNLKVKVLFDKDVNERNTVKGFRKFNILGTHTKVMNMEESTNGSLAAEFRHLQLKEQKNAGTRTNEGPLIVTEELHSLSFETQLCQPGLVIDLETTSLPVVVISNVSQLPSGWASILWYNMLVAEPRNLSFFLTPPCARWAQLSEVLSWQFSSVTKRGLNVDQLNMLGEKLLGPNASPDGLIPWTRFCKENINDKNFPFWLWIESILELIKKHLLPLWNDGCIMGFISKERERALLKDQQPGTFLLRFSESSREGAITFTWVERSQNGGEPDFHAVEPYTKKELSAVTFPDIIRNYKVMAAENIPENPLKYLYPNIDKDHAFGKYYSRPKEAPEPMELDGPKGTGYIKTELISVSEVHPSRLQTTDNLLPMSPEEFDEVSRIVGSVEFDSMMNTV
Assay: native gel or EMSA; extracts of IFNγ-stimulated HeLa cells incubated with [33P]-labelled 2xGAS duplex DNA (two tandem GAS sites); super-shift with STAT1 antibody; competition with 750-fold molar excess of unlabelled M67 DNA; 4.8% acrylamide gel at 4 °C; only DNA-bound complexes are seen
Details: remark: other sources report otherwise

stoichiometry N: 4
B1: endogenous STAT1 of HeLa cells, P42224 1-750 (natural protein)
chain: T1 chain
modifications: here or on the partner: phospho-tyrosine 701 (P-STAT1, IFNγ-stimulated cells); phospho-tyrosine 701 (P-STAT1, IFNγ-stimulated cells)
